Assay results reported in the supplement of paper PMC9170038.

Test system: MS2 coat protein
Test: apparent KD of MS2 coat protein; higher = weaker reporter binding
Conditions: Eterna round: R107
Summary of the method: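 Apparent KD per design is the median of normalised cluster binding-curve fits. Designed RNA switches transcribed on-chip from Illumina sequencing clusters were titrated with SNAP-549-labelled MS2 coat protein in twofold steps from 0.7 or 1.5 nM to 3 µM, with 0.8–1.5 h down to 10–20 min per step. Buffer: 100 mM Tris-HCl pH 7.5, 80 mM KCl, 4 mM MgCl2, without or with constant ligand.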

[1] = input ligand: theophylline 20 uM
[2] = input ligand: tryptophan 2.4 mM
[3] = input ligand: theophylline 2 mM

Sequence | apparent KD of MS2 coat protein (input ligand: arginine 13.2 mM) | apparent KD of MS2 coat protein [1] | apparent KD of MS2 coat protein [2] | apparent KD of MS2 coat protein [3] | apparent KD of MS2 coat protein (input ligand: none)
AAUAAGUACUUUGAUACCAGCCUGCCAUCAUGCUAAUUUACAUGAGGAUCACCCAUGUUAGGCCCUUGGCAGCAAAGUGCAAUAA [XTheo B #1] | 12.8 nM | 15.8 nM | 12.4 nM | – | –
CUAUGCAGGUCGGCCGCCACUACACACAUGAGGAUCACCCAUGUAGUUACUGGGUGAAGUGGCAGUAGGACCGGGACCUGCAUAU [Brourdmod07] | 273 nM | 534 nM | – | 799 nM | –
GGACGAAGUUUCUUGUCCGGUCGCUGAGAAGGAGCGCGGUAAACCGCAGGUAGGUCGCUCAGAAAUACAUGAGGAUCACCCAUGU [Orsosous] | 17.1 nM | 27.2 nM | 21.5 nM | 21.4 nM | 21.1 nM
GGACUAACCAGAAGGAGCGGCACGCAGAAACUGCAAUUUCCUCCGCACGAGGAUCACCCGUGUCAGGUAGGUCGCUGGUUAGUCG | 21.8 nM | 27.5 nM | 25.4 nM | 24.5 nM | 20.4 nM
AUUUACAUGGUCAUAUAUAUAUCGUCAGAUACCAGACUAGAUAUUGUCCCUUGGCAGCUGUUACAUGAGGAUCACCCAUGUUAUA [JR_Nu_ExcTheophyA_Sub020] | 54.5 nM | 113 nM | 178 nM | – | –
AAUGAACAUGAGGAUCACCCAUGUCGUGAUACCAGCCGUAAGAGUGGCCCUUGGCAGCGCCAUGAGGACAACAACAUACAUGAGG [Same State Theophylline A] | 22.9 nM | 29.7 nM | 24.8 nM | – | –
GCAAUAACGAUUGAUACCAGCAUGUUAACAUGAGGAUCACCCAUGUUAAGGAUAACAUAAUGCCCUUGGCAGCAACGGAAAGCCG [Ac] | 16.8 nM | 22.9 nM | 18.5 nM | – | –
GUAGCUAUCGCGGCCGCCACUAAACCGGAAACGGAACAGGAGGAUCACCCUUGUGGCGAAAGCCAUAGGACCGGGCGAUAGCUAC [TryBS - Double Magnet system] | 224 nM | 457 nM | 46.3 nM | 735 nM | –
AUCGCACCUGGUGAUACCAGCGUUUGCUCGCGACAUGAGGAUCACCCAUGUGGCCAGUGAUGCCCUUGGCAGCAUGGGCGGUGCA [Same State - Theophylline B (Freestyle 28)] | 111 nM | 412 nM | 349 nM | – | –
GGUCUCUGGAGCGAUACCAGCUUAAUUGUACUGGCCAGGUACAUGAGGAUCACCCAUGUAAGCCCUUGGCAGCGCUCCAGAGACC [#1 Exclusion - Theophylline B Attempt #12 (HarryS)] | 10.6 nM | 13.6 nM | 11.6 nM | 24 nM | 12.1 nM
AUCCCGUGAGCGGCCGCCACUGGAGGCUUUGCGCGACAUGAGGAUCACCCAUGUGUGCCCGGCGUUAGGACCGGGUUCGCGUGGA [#1 Same State - Tryptophan B Attempt #17 (HarryS)] | 29.3 nM | 71.3 nM | 34 nM | 65.1 nM | 25.6 nM
AGCGACAUGCGUGAUACCAGCUACAUGAGGAUCACCCAUGUACGUCAGAAAUGACUGUGUAGCCCUUGGCAGCAUAAUGCAUGUC [Exclusion - Theophylline B (Freestyle 19)] | 38.3 nM | 60.6 nM | 44 nM | – | –
AAUUAUCACGGAAGGAGCGUCAUGAAAUUGAUACAUGAGGAUCACCCAUGUGAGUGUUAGAGACAGGUAGGUCGCCGAUUAUUGA [JR_AAArginiB_Sub028] | 24.9 nM | 43.1 nM | 31 nM | 49.3 nM | 30.7 nM
AAGGAAAAGGCGGCCGCCACUGGAAAGGCGAAAGCCAAGAAAACAUGAGGAUCACCCAUGUCAUGUAGGACCGGGCCAAAAGGAA | 10 nM | 26.3 nM | 23.7 nM | 14.7 nM | 21.9 nM
GCACCAGGUACGGAUACCAGAGCAAGCCAAAUGAGUGACCAUGAGGAUCACCCAUGGUUGCUCCCUUGGCAGCCGUACCUGGUGC [ETB NP+V+V2 #13 Diff Apt, +-Same Structure] | 7.28 nM | 12.1 nM | 10.9 nM | 79 nM | 12 nM
AUAAGUGUAAGAUACCGCACGCUGGAGGAAGGAGCGCGGAUUAACGCAGGUAGGUCGCCUCGUACAUGAGGAUCACCCAUGUGGC [#14 Same State - Arginine A] | 41.7 nM | 41.5 nM | 35.2 nM | 38.7 nM | 22.5 nM
UGCCGAGACGUGGAUUACCCAUGUACCGAAGGAGCGCCCGAAAGGGCAGGUAGGUCGCGGAGGACAUGAGGAUCACCCAUGUCGA | 83.8 nM | 127 nM | 47 nM | 166 nM | 34.5 nM
UCGAUGGUAUCUGAUACCAGUAGCGUGCGUUACAUGAGGAUCACCCAUGUGCCUAUACUUUACCCUUGGCAGCAGUGGAUUCGAU [theeternabot_sameState_MS2_Theo_B_22] | 57.1 nM | 144 nM | 241 nM | – | –
AGUGUUAUAACUGAUACCAGACCUUUGCUUAUACAUGAGGAUCACCCAUGUAAAAUGGCGGUCCCUUGGCAGCAGAGAAUACGCA [#09 Same State - Theophylline B] | 52.2 nM | 57 nM | 60.1 nM | – | –
ACAUGAGGAUCACCCAUGUGUCCUCGAAAACGAGGACCGGUACGGCCGCCACUCGAAAUAAGCUGUUGACGAAAAGUCAGCAGCA [Mat - Exclusion - Trytophan A - D21] | 74.5 nM | 173 nM | 316 nM | 152 nM | 126 nM
CAUGAGAGAUUGUUUUGUGACUCUAACGAUACCAGAGUAGGACUUCUCCCUUGGCAGCGUGUGACAUGAGGAUCACCCAUGUCCA [theeternabot_exclusion_MS2_Theo_A_5] | 11.8 nM | 12.9 nM | 11.3 nM | – | –
UGAUCCUGCAGGGAUACCAGCGCCGCUAGAUAACUAUGCACAUGAGGAUCACCCAUGUAACGCCCUUGGCAGCCCAGCUAAAGGG [Same State Theophylline B GF22] | 23.1 nM | 60.1 nM | 48.1 nM | 31.3 nM | 58.7 nM
UGUAUGUGAUCUGAUACCAGUCCAACUGGUAAAACAUGAGGAUCACCCAUGUAAAAUUGGGACCCUUGGCAGCAGAUCGCAUACU [ThBS 2] | 259 nM | 418 nM | 615 nM | – | –
ACAUGAGGAUCACCCAUGUUCCUCAUUGAUACCAGUGAAUUUAGACGCCCUUGGCAGCGAGUUUUUUUAUAAGUUUUUUUUUUUU [6.J] | 276 nM | 913 nM | 874 nM | – | –
ACGAUAGCACAAGAGGAUCACCCUUGUGAUACCAGCCUGGAAACAGGCCCUUGGCAGCACACAAAUAAAUUGUAACUAUCGAAUA [TheoAX5 #MicroSwitchBubble #AlternativeMS2] | 22.5 nM | 43.9 nM | 29.3 nM | 112 nM | 23.6 nM
UGUCAUGGAAACAUGACAGGUCUUACCGGUCGAGGACCGGUACGGCCGCCACUCGAUUGGUGGCACAUGAGGAUCACCCAUGUUA [SS Tryp A #16] | 21.8 nM | 47.3 nM | – | 34.3 nM | –
GGCGUCGGGCGAAGGAGCGUGAAGACAUGAGGAUCACCCAUGUAGAGGCCCGGACAGGGUUCGCAGGUAGGUCGCGCGCGGUGCC [#1 Same State - Arginine B Attempt #7 (HarryS)] | 17.5 nM | 23.2 nM | 16.9 nM | 19.5 nM | 13.7 nM
AGGACGGUCGGAAGGAGCGGUACAUGAGGAUCACCCAUGUACUUCUGGGCAUCCGUAGAGUGCCAGGUAGGUCGCCGAUUGCGGG [XArg-B10] | 16.4 nM | 17.5 nM | 12.9 nM | 10.6 nM | 9.36 nM
GCGCGCGCCGAAAGGCGCGCGUGUUGCGAUACCAGCCCGGAAACGGGCCCUUGGCAGCGCACAUGAGGAUCACCCAUGUCAUGUU [Exclusion - Theophylline A Attempt #1 (HarryS)] | 14.9 nM | 27.1 nM | 21.9 nM | 24.5 nM | 17.9 nM
